Drawing on a protein production outcome set (Wang et al. 2014), this text covers protein production for 17 sequences.

This data set is described as follows: label from the status in PepcDB records.
As to “MQLQLICEDPSQQSHLDELAARWQLSHTDESDFALVLTAERLELRKVDEPKLGAIFVDLIGGAVGHRRKFGGGKGQAIAKAAGLNKGATPTVLDGTAGLGRDAFVLASLGCKVQMVERHPVVAALLDDGLARAKQDPEIGTWVSERMSLIHASSHDALDQLAQDREFVKPDVVYLDPMYPHPENKKKSALVKKEMRVFQSLVGADLDADGLLEPALALATKRVVVKRPDYANWLNEQKPSMAIETKKNRFDVYVKASMALEHHHHHH”, the protein production result is on record as “not failed”.

Turning to “MNRLQGMELFVEVARTLSFGRAAENLAIPKSTLSRQVAELERSVGLRLLSRTTRRVELTEAGQLYFERCQRIVAEARIAHEELQNLVETPSGPLRVNMPADFGTDFLSEAFTEFSRRYPEVTFYLDLASPEHAERVFQTCDVSIEIGDLPDSTHIARLLGVLPAHLYASPDYLARHGEPQHPDDLPRHECIQFRAGTGRVTRWPLNSGERHVEITPGNRFSVNSVSMVRNLATLGAGIAILAPMGNVREDIESGRLKRILPDWLAGPFPVYAVTDTRMLPAKTRIFVEFLMERLSNKTLAGQNNPAFLNLR”, the protein production result is “failed”.

Consider “MEPSGGEQEPGAVRFLDLPWEDVLLPHVLNRVPLRQLLRLQRVSRAFRSLVQLHLAGLRRFDAAQVGPQIPRAALARLLRDAEGLQELALAPCHEWLSDEDLVPVLARNPQLRSVALGGCGQLSRRALGALAEGCPRLQRLSLAHCDWVDGLALRGLADRCPALEELDLTACRQLKDEAIVYLAQRRGAGLRSLSLAVNANVGDAAVQELARNCPELHHLDLTGCLRVGSDGVRTLAEYCPVLRSLRVRHCHHVAESSLSRLRKRGVDIDVEPPLHQALVLLQDMAGFAPFVNLQV”, for which the protein production entry was “not failed”.

For the sequence “EQEDRALRSFKLSVTVDPKYHPKIIGRKGAVITQIRLEHDVNIQFPDKDDGNQPQDQITITGYEKNTEAARDAILRIVGELEQM”, the protein production entry is “not failed”.

Turning to “MTMSPSQDQTENTDMLTEIAILYYQEGATQEEISKKFGLSRAKVGRMLRKAREEGIVEITVKFHPVYSVQLEQKLVEKFNLKRALISLDQPNTNEQRKQVAALVSSYLNNNLQEGMAVAVGQGQNVAAVADHAGIVTQRNARFVSAIGGTHRSGDIINADHICRRLAKKYGGSSETLYAPAYVNDPSLRSAFMEHATIKETLSQARKAEFALVGIGDMDENSHMVKLGFFTPKEFVEARLNDGIVGDIGGFDFFKLDGTDADTLMRGRVIGLEMEDLRQIPNVVAMASESRKALSIMGALRTGVIDVLATSVSCAMALLNLAENEE”, the protein production entry is reported as “not failed”.

For “MNDHTAAIAAHFDQLAPNLDRWRRRNRTYYRDLEKLHRFWIPTGSRVLQVGSGLGDLLATVEPSFGIGIDVSPQAVAIAQQRHPQLQFHCLAAEELTPEAIGNPEPFDAIILTGVLSYLTDIQVVLEQLQAFCHPRTRLILGFHNFLWQPLLTAAEKVGQRSPQPPESWLGMQDVLNLLTLTGYEPIKQGLEHHHHHH”, the protein production entry is “not failed”.

For the sequence “MVIIDWSLSVDRTIPKPLRIILRGVGQVFFCCNAVTGLIFLMALYIGGVTAGLAATAGVFSSTIAAHLLGFPEKDIDAGLYGFNGTLVGPCLFLFLENSPQLWLYVVLASILSTIVLAALMRILQPCDIPASTAPFILTCWMFMAAVYAFDSFSRGPLLPTAGIPVEAANISMIPVEIGYMAAAKGISEVMFADSVVVGILFLAGIAIHSLRGAAMALAGAIVGIVIPVLLGMDKSLIEMGLYAFNPVLAMMAVGWAFLKPSGRSMGLAFLAGIFTVICQAGLTGFLTPLGLPVLTFPFVLVMWVFLLAASRSKYWEYLNQGK”, the protein production entry is reported as “failed”.

Turning to “MFFNFLIPPNSFSSFPEYVAFVVSLSYALNATLLLLYSRIFGVEVKEKAFIPVTLSFVAIDFTSIQGLRLFVGIPAYLGVVILTSLCILEGLALALTSSLALVNASRRHLAATWIAANVASSGLFMAFVGVS”, the protein production entry was “failed”.

As to “MKRFPGRDMRSLTELVLGRDKFRTALCCSVVGMLLTLLFLSSCHYTRPDLTSEELSEKTKDSLNYLYDRHYTWNTNLEVTTDSVTMECLPIKDTYIALYKGDRVVVAEFAIHPADSVDSVWVKLAHTQEEQGWIRETELKESFVPTDSISQAIHFFSDTHASYFMIIFALFVGVYLFRAFRRKQLQLVYFNDIDSVYPLFLCLLMAFSATVYESMQVFVPDTWEHFYFNPTLSPFKVPFILSVFLLSIWLFLIVALAVLDDLFRQLTPAAAVFYLLGLMSSCIFCYFFFILMTHIYIGYLFLAFFIWVFAKKVHRNISYKYRCGHCGEKLKEKGICPHCGAINE”, the protein production result is given as “failed”.

Regarding “DHKDLIVVAAKHGYALADRNTGQLSYIRKVWDEQEDPEKARRMRFNDGAVDSHGRFWAGSMNDPKVQKPTNEGVLFRLDPDLQLHRMVEGVSIPNGIGWNLRDDTMYFTDSPTAKIFAFDFDASTGTISNRRVHYDVGEPMEPDGFAIDEEGCIWSAIYGGGKIIRISPEGKLIGEISFPTRNITCPTFVGTELFVTTAKDDVNDEQFPESVRYGGRVYRIDVGVRGKPKNEFRFQK”, the protein production entry is listed as “failed”.

In the case of “MHVQEWLETVPAVSIYALVGLVIGLESLGIPLPGEIVLISAALLSSQHGGINPVILGICATVGAVVGDSIGYAIGRKGGRPLLAWLGNKFPRHFGEGHIATAERSFEKWGMWAVFFGRFVALLRIFAGPLAGVLRMPYWKFLIANVLGGIIWAGGTTAVIYYVGVVAESWLKRFSYLGLVAAVLIGLASMLVIKRKAKKAAAEREAAEPETVPAAD”, the protein production entry is “failed”.

Regarding “MAEPVDVLVLGGGPAALCIASELNQWGVAVGCIAPDPVDASWPNTYGIWADELKMVGLEHLLEHRWSDTVSFFGAGGSTAQDQSHAHGIDYGLFDRAELQRYWLERADGVVWHQDTAERVDATSATTSVSCVSGTTLQARLVIDASGSRTPHIRRPDQGPVAGQAAYGVVGRFSQPPIEAGRFVLMDYRCDHLSAAQRQEPPTFLYAMDLGDGVFFVEETSLALAPGFSYDVLKQRLQQRLDQRGVAITEVIHEEFCLFPMNLPLPDRSQPLLAFGGAASMVHPASGYMVGSLLRRGPDLAKALAEALANRNLGSAALAQRGWQALWPIELVLRHQLYQFGLGRLMGFNEALLRTHFATFFSLPREEWFGFLTNTLPLPRLMGVMLRLFALSPWELRRGLVLGAAMDQLPTFDQSSG”, the protein production entry is given as “failed”.

Regarding “MELRPSGDSGSSDVDAEISDGFSPLDTSHRDVADEGSLLRRAEMYQDYMKQVPIPTNRGSLIPFTSWVGLSISMKQLYGQPLHYLTNVLLQRWDQSRFGTDSEEQRLDSIIHPTKAEATIWLVEEIHRLTPSHLHMALLWRSDPMYHSFIDPIFPEK”, the protein production entry was “not failed”.

As to “MEINNNISSTIPLVDIVLVFCYVFSFYVIGPLTSSVIIALPLMFCCLYKKKWGYCLLLELKNSFIVRIFISQWLLIGIAVFYSCLHLTMELEYIKVLIAQMFHFICGIFIIIYLKYQKQYTTLKIEQTIIWAFLVQSIIQLIAMSIPSFAHFILYFSRAHDLQDAYGGGVRGLALSSGVGWSLGLAYGLIYIVFVKRYLLSGVNMKSTLIGILLLMGTIFAGRTGFVGACLGGIFFIISNQLSYRTKLMFVLKILLGVILFFLCIYFLFPSMTEHLVDNVFPFAFEPFYKMYYNDEFSTSSTDRLEEMWRVSTSVEEILYGSGSFIDTITGAYYKHIDIGILRNLFYWGIGGYILLIIYQLILIAPIKYNKIQRVSHFNMFFYKLLIIVYLFLLECKAVTIGLNKMTFSVIFLIAYFYFDEIHSKKYIAELR”, the protein production result is “failed”.

With “MNRHLIHRRDILDTLVADLQAQQPDHIAVTGDLVNIALVNEFAPARQWLESVGPADRVSLVPGNHDAYVRSTAHRFAETFPDYISGDDATPGFPYLRRREAIAIIGVSSAVPTAPLRATGWLGAPQRAALEALLQSLAGERVFKVLLIHHPLQSRSRHKRLTDAADLIALLQRHPVDLVLHGHDHVHATVRIDTPFGAIPVVGVPSASAMNDRHRPSAAYNLFKISEGNDGWRCLEHHHHHH”, the protein production entry is “failed”.

As to “LHARLLQQESIINALPFAVFIRTAAGELAVYNSHFAEAHQDKLNDLLNHNNEPANWPMTSPLDREIDKYCRQVLTHRKPQMVDLSLEINGELRDIFLWIIPLDNAERSLFGGWLDISQRKTVERQLEAARVEAESANRTKSTFLATISHELRTPMYAIMGLL”, the protein production entry is on record as “failed”.

Take “MATDTTVQLRAGWQGRFYEDFAVGDVYKHPYGRTVTETDNVWFTNLTMNANPMHFNAAYASGTEFDERLVNGLFVIALSVGMSVVDVSANATANLGYDDIQHHAPVFHGDTLFAESEVLSKRESESRPHVGMVTTELRTYTQDGELVLSLERTPMVRKRGAADPLEHHHHHH”: the protein production result was “failed”.
